Experimental data reported in PMC7617805, “Mechanism of DNA capture by the MukBEF SMC complex and its inhibition by a viral DNA mimic” (Cell, 2025).

Experiments:
[1] = target: the molecule itself; experiment: cryo-EM structure; wild-type P. thracensis MukBEF dimers 150 nM with nicked plasmid pFB526, 5 mM ATP, 10 mM MgCl2, optionally Na3VO4 or BeSO4/NaF; datasets pooled; open-gate and DNA capture states
[2] = target: the molecule itself; experiment: cryo-EM structure; E. coli MukEF 1 uM with 4 uM gp5.9 in 20 mM Tris, 200 mM NaCl, 0.5 mM TCEP, 0.05 % β-octyl glucoside, pH 7.4; focused refinement on gp5.9/MukE

| Protein | binding result [1] | stoichiometry N [2] |
| --- | --- | --- |
| P. thracensis MukB, wild type, as subunit of the MukBEF complex used for cryo-EM (natural protein, Photorhabdus thracensis, UniProt A0A0F7LRY2 1-1482, looked up, MukB of Photorhabdus thracensis; the MukB chain of m14; also called κ-MukB; ν-MukB; source: E. coli BL21-Gold(DE3), polycistronic pFB403, purified as the MukBEF complex; not shown: His6-SUMO, N-terminal, cleaved) MIERGKFRSLTLVNWNGFFARTFDLDELVTTLSGGNGAGKSTTMAAFVTALIPDLTLLHFRNTTEAGATSGSRDKGLHGKLRAGVCYSTLDVINSRHQRVVVGVRLQQVAGRDRKVDIKPFMIQGLPTAIQPTQLLTENVGERQARVLPLNELKDRLDEMEGVQFKQFNSITDYHAQMFDLGVIPKRLRSASDRSKFYRLIEASLYGGISSAITRSLRDYLLPENSGVRKAFQDMEAALRENRITLEAIRVTQSDRDLFKHLITEATSYVSADYMRHANERRTHLDEALALRGELFGSHKQLATEQYRHVEMARELAEQSGASSDLETDHQAASDHLNLVQTAMRQQEKIDRYQVDLEELSYRLEEQTDVVEEAGELQAEYEARTEATEQEVDELKSQLADYQQALDVQQTRAIQYQQALQALERARELCRLPDLSVDNAEEWLETFQAKEQQATEALLALEQKLSVADAAHNQFEQAYQLVKNIVGETSRSEAWQSARELLRDWPSQRHLADRVQPLRMRLSELEQRLNNQQNAERLLSEFCKRQGRQYQAEDLEALQNELEARQEALSLSVNEGGERRMEMRQELEQLKQKIQSLTARAPVWLAAQDTLNQLCEQSGETLASSNDVTEYMQQLLEREREATVERDEVAAQKRELEKQIERLSQPSGAEDSRMIALAERFGGVLLSEIYDDITIDDAPYFSALYGPARHGIVVPDLSLVRPHLETLEDCPEDLYLIEGDPQSFDDSVFNAEEQTNAVLVKSSDRQWRYSRYPELPLFGRAARENRLEALNLERDALAERYATLSFDVQKIQRAHQAFSQFVGKHLSVAFDTDPEAEIRELRQRHTELEREVSRFEDQTQQQRQQYAQAKESLTTLNRLIPQVTLLLDETLIDRVEEVREEMDEAQEAARFLQQHGSALTKLEPMVAVLQSDPQQHEQLQQDYETAKHSQHQAKQQAFALVEIVQRRVHFSYSDSAGMLSENADLNDKLRQRLEHAESDRSRAREQLRQQQAQYSQFNQVLASLKSSYETKQDMLKELLQEMKDIGVQADANAEMRARERRDRLHEALSVNRSRVNQLEKQIAFCEAEMENVQKKLRKLERDYYQIREQVVSAKAGWCAVMRMVKDNGVERRLHRRELAYMEGGALRSMSDKALGALRLAVADNEHLRDALRLSEDPKRPERKVQFFIAVYQHLRERIRQDIIRTDDPVDAIEQMEIELARLTEELTAREQKLAISSKSVANIIRKTIQREQNRIRMLNQGLQAVSFGQVRGVRLNVNVRESHAILLDVLSEQQEQHQDLFNSQRLTFSEAMAKLYQRLNPQVDMGQRLPQTIGEELLDYRNYLELDVEVNRGSDGWLKAESGALSTGEAIGTGMSILVMVVQSWEEESRRLRGKDISPCRLLFLDEAARLDAKSIATLFELCERLQMQLIIAAPENISPEKGTTYKLVRKVFKNHEHVHVVGLRGFGQDAPATQLISDVTA | binds |  |
| T7 gp5.9 (untagged after cleavage, from insect cells) (natural protein, bacteriophage T7, gp5.9 of bacteriophage T7; Used as 'gp5.9 dimers' in SEC; source: Hi5 insect cells, purified (Talon, 3C cleavage, HisTrap flowthrough, MonoQ)) MSRDLVTIPRDVWNDIQGYIDSLERENDSLKNQLMEADEYVAELEEKLNGTS |  | 2 |
